In experiment [1] the target is SARS-CoV-2 Omicron BA.2 spike extracellular domain trimer (SARS-CoV-2 Omicron BA.2) (UniProt P0DTC2). Description: BLI. In general terms: Biolayer interferometry detects binding as a change in optical thickness at a sensor tip.
Experiment [2] has the same target. Description: cryo-EM structure.

As a reminder, the Kd is the free concentration of one partner at which half of the binding sites on the other are occupied at equilibrium, for simple one-to-one binding. Low values mean tighter binding, high ones weaker binding. Regarding JMB2002 IgG (antibody), the Kd in experiment [1] came out at 0.3 nM.

In turn, JMB2002 Fab displayed a stoichiometry N (Fab per spike trimer) in experiment [2] of 3. In addition, the Kd in experiment [1] was 2.6 nM.

The values are drawn from PMC9152305.
